Numbering of substitutions follows the chain as printed. Like-named read-outs stand apart in the source and are kept apart here.
Legend:
YU-2 gp120 [1] = biological target: T1, YU-2 gp120 (HIV-1 (strain YU-2), UniProt P35961 32-498); assay: SPR, IgG over immobilised YU-2 gp120, 1:1 fit, apparent constant
T1 construct: domain: gp120; also called gp120WT; intact YU-2 gp120

YU-2 gp120 [2] = biological target: T1, YU-2 gp120; assay: ELISA, coated antigen, OD405 vs [IgG] (M)
YU-2 gp120 [3] = biological target: T1, YU-2 gp120; assay: ELISA, coated antigen, OD405 vs [IgG] (M); remark: listed apart in the source
YU-2 gp120 [4] = biological target: T1, YU-2 gp120; assay: ELISA, coated antigen, OD405 vs [IgG] (M); remark: listed apart in the source
gp120GD324-5AA = assay: ELISA, coated antigen, OD405 vs [IgG] (M)
YU-2 gp120 [5] = biological target: T1, YU-2 gp120; assay: ELISA, coated antigen, OD405 vs [IgG] (M); remark: listed apart in the source
gp120NNT301-303AAA = assay: ELISA, coated antigen, OD405 vs [IgG] (M)
YU-2 gp120 [6] = biological target: T1, YU-2 gp120; assay: ELISA, coated antigen, OD405 vs [IgG] (M); remark: listed apart in the source
YU-2 gp120 [7] = biological target: T1, YU-2 gp120; assay: ELISA, coated antigen, OD405 vs [IgG] (M); remark: listed apart in the source
YU-2 gp120 [8] = biological target: T1, YU-2 gp120; assay: SPR, apparent KD on gp120, bar graph
[9] = biological target: HIV-1 62357_14_D3_4589 envelope on pseudovirus (HIV-1 (strain 62357_14_D3_4589)); assay: cell-based or functional assay
[10] = biological target: HIV-1 CNE19 envelope on pseudovirus (HIV-1 (strain CNE19)); assay: cell-based or functional assay

B1: 10-1074 (antibody, V domains shown)
VH: QVQLQESGPGLVKPSETLSVTCSVSGDSMNNYYWTWIRQSPGKGLEWIGYISDRESATYNPSLNSRVVISRDTSKNQLSLKLNSVTPADTAVYYCATARRGQRIYGVVSFGEFFYYYSMDVWGKGTTVTVSS
VL: SYVRPLSVALGETARISCGRQALGSRAVQWYQHRPGQAPILLIYNNQDRPSGIPERFSGTPDINFGTRATLTISGVEAGDEADYYCHMWDSRSGFSWSFGGATRLTVL
- Ka (YU-2 gp120 [1]): 1.1e+08 M⁻¹
- Kd (YU-2 gp120 [1]): 9.5 nM
- koff (YU-2 gp120 [1]): 0.00019 s⁻¹
- EC50 (read off the curve) (YU-2 gp120 [2]): ~300 pM
- EC50 (read off the curve) (YU-2 gp120 [3]): ~500 pM
- EC50 (read off the curve) (YU-2 gp120 [4]): ~300 pM
- binding result (gp120GD324-5AA): binds
- EC50 (read off the curve) (YU-2 gp120 [5]): ~100 pM
- EC50 (read off the curve) (gp120NNT301-303AAA): ~100 pM
- EC50 (read off the curve) (YU-2 gp120 [6]): ~500 pM
- EC50 (read off the curve) (YU-2 gp120 [7]): ~700 pM

B2: 10-1074GM (antibody, V domains shown)
VH: B1 VH with Y32S, D53K, R54S, T58N, R100H, Y115T
VL: B1 VL
notes: also called 10-1074 glycomutant
- fold difference of KD, wildtype vs glycomutant (YU-2 gp120 [8]): 1.8 fold
- IC50, TZM-bl neutralization [9]: 40.8 µg/mL
- IC50, TZM-bl neutralization [10]: 0.19 µg/mL

B3: 10-1341 (antibody, V domains shown)
VH: B1 VH with K75T, K124R
VL: B1 VL
- Ka (YU-2 gp120 [1]): 1.2e+08 M⁻¹
- Kd (YU-2 gp120 [1]): 8.2 nM
- koff (YU-2 gp120 [1]): 0.00016 s⁻¹
- EC50 (read off the curve) (YU-2 gp120 [2]): ~400 pM
- EC50 (read off the curve) (YU-2 gp120 [3]): ~500 pM
- EC50 (read off the curve) (YU-2 gp120 [4]): ~500 pM
- binding result (gp120GD324-5AA): binds
- EC50 (read off the curve) (YU-2 gp120 [5]): ~90 pM
- EC50 (read off the curve) (gp120NNT301-303AAA): ~90 pM
- EC50 (read off the curve) (YU-2 gp120 [6]): ~200 pM
- EC50 (read off the curve) (YU-2 gp120 [7]): ~600 pM

B4: 10-847 (antibody, V domains shown)
VH: B1 VH with E55A
VL: B1 VL with R15S
- Ka (YU-2 gp120 [1]): 1.1e+08 M⁻¹
- Kd (YU-2 gp120 [1]): 8.9 nM
- koff (YU-2 gp120 [1]): 0.00018 s⁻¹
- EC50 (read off the curve) (YU-2 gp120 [2]): ~200 pM
- EC50 (read off the curve) (YU-2 gp120 [3]): ~300 pM
- EC50 (read off the curve) (YU-2 gp120 [4]): ~300 pM
- binding result (gp120GD324-5AA): binds
- EC50 (read off the curve) (YU-2 gp120 [5]): ~100 pM
- EC50 (read off the curve) (gp120NNT301-303AAA): ~100 pM
- EC50 (read off the curve) (YU-2 gp120 [6]): ~300 pM
- EC50 (read off the curve) (YU-2 gp120 [7]): ~400 pM

B5: 10-410 (antibody, V domains shown)
VH: QVQLQESGPGLVKPPETLSLTCSVSGASVNDAYWSWIRQSPGKRPEWVGYVHHSGDTNYNPSLKRRVTFSLDTAKNEVSLKLVALTAADSAVYFCARALHGKRIYGIVALGELFTYFYMDVWGKGTTVTVSS
VL: SFVSVAPGQTARITCGEESLGSRSVIWYQQRPGQAPSLIIYNNNDRPSGIPERFSGSPGSTFGTTATLTITSVEAGDEADYYCHIWDSRRPTNWVFGEGTTLTVL
- Ka (YU-2 gp120 [1]): 2.1e+07 M⁻¹
- Kd (YU-2 gp120 [1]): 47 nM
- koff (YU-2 gp120 [1]): 0.0017 s⁻¹
- binding result (gp120GD324-5AA): binds
- binding result (gp120NNT301-303AAA): binds

From patent US12338277 (ROCKEFELLER UNIVERSITY, dated 2025)
